Target: transferrin receptor 1 (TfR1), human (human, UniProt P02786 1-760)
Assay: FACS binding, Raji cells, 4 °C

Sequence of transferrin receptor 1 (TfR1), human (P02786 whole entry): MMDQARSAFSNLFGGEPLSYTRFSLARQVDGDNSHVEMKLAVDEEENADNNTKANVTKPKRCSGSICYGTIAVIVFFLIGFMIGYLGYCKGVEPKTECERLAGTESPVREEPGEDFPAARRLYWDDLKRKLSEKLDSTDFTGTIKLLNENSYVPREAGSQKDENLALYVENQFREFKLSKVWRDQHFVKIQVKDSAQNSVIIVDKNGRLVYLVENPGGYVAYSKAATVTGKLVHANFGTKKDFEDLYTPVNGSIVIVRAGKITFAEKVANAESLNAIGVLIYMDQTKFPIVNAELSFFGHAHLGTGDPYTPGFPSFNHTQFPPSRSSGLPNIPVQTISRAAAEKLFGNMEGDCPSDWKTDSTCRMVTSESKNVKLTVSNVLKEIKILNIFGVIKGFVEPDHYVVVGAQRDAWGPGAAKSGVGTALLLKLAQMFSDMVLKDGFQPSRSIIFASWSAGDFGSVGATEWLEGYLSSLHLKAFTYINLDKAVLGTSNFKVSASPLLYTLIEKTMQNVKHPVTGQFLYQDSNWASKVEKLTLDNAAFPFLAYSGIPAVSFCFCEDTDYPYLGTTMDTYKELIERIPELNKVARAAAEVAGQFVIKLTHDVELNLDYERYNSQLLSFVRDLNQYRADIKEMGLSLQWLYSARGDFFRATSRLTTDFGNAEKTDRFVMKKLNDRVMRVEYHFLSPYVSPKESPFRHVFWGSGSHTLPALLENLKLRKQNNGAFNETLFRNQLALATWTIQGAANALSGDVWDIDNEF

B1: F12-IgG1 (IgG1 anti-TfR1 F12 antibody) (antibody, V domains shown)
VH: QVQLQESGGGLVQPGGSLRLSCAASGFSFNTYTMHWVRQAPGKGLEWVADIAYDGSTKYYADSVKGRFTISRDNAKNSLYLQMNSLRAEDTAVYYCARDAVAGEGYFDLWGRGTLVTVSS
VL: QSALTQDPAVSVALGQTVRITCQGDSLRSYYASWYQQLPGTAPKLLIYRNNQRPSGVPDRFSGSKSGTSASLAISGLRSEDEADYYCAAWDDSLSAWVFGGGTKLTVLG
- EC50: 1.13 nM

Source: US20230183379A1 (published 2023)
